Reference: patent US20110059504A1 (GENERAL HOSPITAL, published 2011)

T1: FcεRI-MBP (UniProt P12319 26-205)
T1 construct: Produced in E. coli; order of the two parts is printed both ways (mbp-FcεRI, FcεRI-MBP); also called mbp-FcεRI; mbpFcεRI
T1 sequence (looked up): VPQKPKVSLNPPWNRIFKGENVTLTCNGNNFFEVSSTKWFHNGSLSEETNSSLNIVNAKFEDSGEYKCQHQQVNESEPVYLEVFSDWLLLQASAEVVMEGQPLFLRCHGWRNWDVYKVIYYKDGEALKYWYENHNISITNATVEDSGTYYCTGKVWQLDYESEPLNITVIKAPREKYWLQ

T2: human myostatin (human, UniProt O14793 267-375, biotinylated in selections and radioactive assays (site not stated))
T2 construct: Phage ELISA used both unbiotinylated and biotinylated myostatin; also called biotinylated human myostatin; myostatin-biotin
T2 sequence (looked up): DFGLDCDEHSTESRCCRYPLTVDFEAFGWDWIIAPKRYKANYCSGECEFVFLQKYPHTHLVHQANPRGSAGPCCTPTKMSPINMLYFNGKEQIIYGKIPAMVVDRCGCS


Key:
[1] = biological target: T3, human β-NGF (human, UniProt P01138 122-241, biotinylated (site not stated)); assay: radioactive equilibrium binding assay
T3 construct: also called biotinylated human β-NGF; nerve growth factor
Procedure: (§1) Affinities of selected F13β2 binders to biotinylated myostatin were determined in radioactive equilibrium binding assay (FIGS. 11A and 11B; Table 3). ³⁵S-labeled binder proteins from selection pools and single clones were produced in vitro in a rabbit reticulocyte lysate translation kit (Ambion) and purified on M2-agarose (Sigma). Varying concentrations of biotinylated human myostatin (0-100 nM) or other proteins (protein 1: 100 nM; peptide 1: 250 nM; protein 2: 50 nM) were incubated with a constant concentration of the purified binder protein (1 or 2 nM) at 30° C. for 30 min in buffer B (1×PBS, 0.02% Triton X-100 [pH 7.4]). The receptor-binder complexes were captured by using 25 μl of M280 or Protein A (Dynal) (protein 2) magnetic beads for 10 min at room temperature on a Kingfisher instrument (Thermo Fisher Scientific). The beads were washed five times with 100 μl buffer B, and the amount of ³⁵S-methionine remained on the beads was measured by scintillation counting. Data were analyzed by using the GraphPad Prism software (GraphPad Software, Inc., San Diego, Calif.), fitted with a one-site, nonlinear binding equation. For inhibition assay the binding of ³⁵S-labeled proteins to 20 or 25 nM of biotinylated human myostatin was performed in the presence of varying concentrations of inhibitor (human activin receptor IIB/Fc chimera (R&D Systems, Minneapolis, Minn.) (0-250 nM); protein 1 (100 nM), peptide 1 (250 nM), protein 2 (50 nM); proteins, produced in E. coli, M17, M7, M29, M21, M1-1, WT F13β2 (500 nM)).
Selected F13β2 binders were tested for binding to biotinylated β-NGF in radioactive equilibrium binding assay (FIGS. 21A and 21B; Table 4) according to the procedure described for myostatin binders. NGF at concentrations up to 100 nM was incubated with a constant concentration of the purified binder protein (1 or 2 nM) at 30° C. for 1 hour. Affinities to human β-NGF differed greatly between various binders.

[2] = biological target: T4, streptavidin beads (M-280 beads) (UniProt P22629 37-163, limits assumed); assay: radioactive equilibrium binding assay
T4 construct: Capture beads used as negative control

[3] = biological target: T1, FcεRI-MBP; assay: phage ELISA on target-coated Maxisorp wells, anti-M13 pVIII-HRP
Procedure: An Elisa screening was performed after four rounds of selection to identify binding clones. Randomly picked phagemid clones were incubated with target-coated or buffer-coated Maxisorp wells at room temperature for 1 hour. Unbound phage was removed and the wells were washed eight times with PBS pH 7.4, 0.05% Tween-20. Binding was determined with an anti-M13 pVIII antibody-HRP conjugate (GE). […] Varying levels of binding to targets and the Maxisorp surface were also observed in other clones.

[4] = biological target: T2, human myostatin; assay: radioactive equilibrium binding assay
Procedure: as §1

T3 sequence (P01138 122-241 limits assumed): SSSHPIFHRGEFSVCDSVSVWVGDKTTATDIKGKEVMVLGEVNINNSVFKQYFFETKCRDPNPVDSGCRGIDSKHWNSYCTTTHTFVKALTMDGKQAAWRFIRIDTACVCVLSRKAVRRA
T4 sequence (P22629 37-163 limits assumed): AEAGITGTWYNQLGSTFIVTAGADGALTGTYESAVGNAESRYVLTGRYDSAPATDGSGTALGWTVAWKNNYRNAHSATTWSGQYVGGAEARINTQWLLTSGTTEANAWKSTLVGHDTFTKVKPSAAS

Binder	B max [4] [%]	Kd [4] [nM]	further results
61362-C6 (designed binder, group N1) MTIPEIIIKVRGTQVVGSDMTVIVEFTNPLNEPLLFVWVHLDGPGVTRPMKKMFRIISPHATVQWEEVVRPWVSGHRKLIASMSIGFQAHVYGELDVQIQRRDYKDDDDK			B max [1]: 5.5%; Kd [1]: 24 nM; binding result [2]: no binding
61363-C1 (G17D) (designed binder, group N3; G17D) MTIPEIIIKVRGTQVVDSDMTVIVEFTDTVLEILRTVWVHLDGPGVTRPMKKMFPHIRPKVTVQWEEVVRPWVSGHRKLIASMLIASLRHVYGELDVQIQRRDYKDDDDK			B max [1]: 1.8%; Kd [1]: 2.8 nM; binding result [2]: no binding
FG6+6 phage clone MNPRMEM / HPDSD / RLWTLWMARWRW (designed binder, not shown: 6-his, myc tag and C-terminal domain of M13 pIII (phage display fusion)) TIPEIIIKVRGTQVVGSDMTVIVEFMNPRMEMLRNVWVHLDGPGVTRPMKKMFREIHPDSDVQWEEVVRPWVSGHRKLIASMSRLWTLWMARWRWVYGELDVQIQRR			Target Binding [3]: 2.35
39633-F4 (designed binder, group M1-A50; V91L) MTIPEIIIKVRGTQVVGSDMTVIVEFSNPFKETLRNVWVHLDGPGVTRPMKKMFCEIRPNSIVQWEEVVRPWVSGHRKLIASMRTQYLIHLYGELDVQIQRRDYKDDDDK	28.5	26.8	
39633-E2 (designed binder, group M1-A50; V91L) MTIPEIIIKVRGTQVVGSDMTVIVEFSNPFKETLRNVWVHLDGPGVTRPMKKMFCEVRPNSVVQWEEVVRPWVSGHRKLIASMRTQYLIHLYGELDVQIQRRDYKDDDDK	21	27.3	
39633-D5 (designed binder, group M4-A50; also called 39633-D5/yes) MTIPEIIIKVRGTQVVGSDMTVIVEFTNPFKETLRSVWVHLDGPGVTRPMKKMFREIPPKTTVQWEEVVRPWVSGHRKLIASMCEPSLDHVYGELDVQIQRRDYKDDDDK	6.91	8.69	
39633-B3 (designed binder, group M1-A50; V91L) MTIPEIIIKVRGTQVVGSDMTVIVEFTNPLSQTLSAVWVHLDGPGVTRPMKKMFREIPPKTTVQWEEVVRPWVSGHRKLIASMRTQYLIHLYGELDVQIQRRDYKDDDDK	6.14	9.93	
39633-F5 (I3Y, M83I) (designed binder, group M1-A50; V91L, I3Y, M83I) MTYPEIIIKVRGTQVVGSDMTVIVEFTNPFKETLRSVWVHLDGPGVTRPMKKMFREIPPKTTVQWEEVVRPWVSGHRKLIASIRTQYLIHLYGELDVQIQRRDYKDDDDK	69.7	32.1	
39908-F8 (K52R) (designed binder, group M1-A50; V91L, K52R) MTIPEIIIKVRGTQVVGSDMTVIVEFTNPFKETLRSVWVHLDGPGVTRPMKRMFREIPPETTVQWEEVVRPWVSGHRKLIASMRTQYLIHLYGELDVQIQRRDYKDDDDK	45.7	36.6	
39633-C5 (designed binder, group M1-A50; V91L; also called M34 (clone ID)) MTIPEIIIKVRGTQVVGSDMTVIVEFTNPFKETLRSVWVHLDGPGVTRPMKKMFRVIPPKTTVQWEEVVRPWVSGHRKLIASMRTQYLIHLYGELDVQIQRRDYKDDDDK	93	30.8	
39633-D6 (designed binder, group M3-A50; ΔS82, M83R; also called M020 (clone ID)) MTIPEIIIKVRGTQVVGSDMTVIVEFTNPFKETLRNVWVHLDGPGVTRPMKKMFCEIRPNSIVQWEEVVRPWVSGHRKLIARCSLSPWHVYGELDVQIQRRDYKDDDDK	79.6	20.3	
39908-H4 (designed binder, group M3-A50; ΔS82, M83R; also called M015 (clone ID)) MTIPEIIIKVRGTQVVGSDMTVIVEFSNPFKETLRNVWVHLDGPGVTRPMKKMFRDIRPKTKVQWEEVVRPWVSGHRKLIARCQLLPWHVYGELDVQIQRRDYKDDDDK	68.6	15.8	
39908-A7 (designed binder, group M3-A50; ΔS82, M83R; also called M24 (clone ID)) MTIPEIIIKVRGTQVVGSDMTVIVEFSNPFKETLRNVWVHLDGPGVTRPMKKMFCEIRPNSIVQWEEVVRPWVSGHRKLIARMTLRPWHVYGELDVQIQRRDYKDDDDK	109	20.1	
39908-D2 (designed binder, group M3-A50; ΔS82, M83R; also called M29 (clone ID)) MTIPEIIIKVRGTQVVGSDMTVIVEFTNPFKETLRSVWVHLDGPGVTRPMKKMFREIPPKTTVQWEEVVRPWVSGHRKLIARCSLSPWHVYGELDVQIQRRDYKDDDDK	68.8	23.3	
39908-C6 (designed binder, group M3-A50; ΔS82, M83R; also called M05 (clone ID)) MTIPEIIIKVRGTQVVGSDMTVIVEFTNPFKETLRSVWVHLDGPGVTRPMKKMFCEIRPNSIVQWEEVVRPWVSGHRKLIARCSLSPWHVYGELDVQIQRRDYKDDDDK	52.2	19.7	
39633-A5 (V46I) (designed binder, group M3-A50; ΔS82, M83R, V46I) MTIPEIIIKVRGTQVVGSDMTVIVEFSNPFKETLRNVWVHLDGPGITRPMKKMFCEVRPNSIVQWEEVVRPWVSGHRKLIARCSLSPWHVYGELDVQIQRRDYKDDDDK	78.3	19.4	
39908-C11 (designed binder, group M3-A50; ΔS82, M83R; also called M22 (clone ID)) MTIPEIIIKVRGTQVVGSDMTVIVEFSNPFKETLRNVWVHLDGPGVTRPMKKMFSEIRTNATVQWEEVVRPWVSGHRKLIARCSLSPWHVYGELDVQIQRRDYKDDDDK	73.7	17	
39908-B2 (designed binder, group M3-A50; ΔS82, M83R; also called M07 (clone ID)) MTIPEIIIKVRGTQVVGSDMTVIVEFTNPFKETLRSVWVHLDGPGVTRPMKKMFREIPPKTTVQWEEVVRPWVSGHRKLIARCQLLPWHVYGELDVQIQRRDYKDDDDK	75.9	27.1	
39908-F5 (designed binder, group M3-A50; ΔS82, M83R; also called M16 (clone ID)) MTIPEIIIKVRGTQVVGSDMTVIVEFTNPFKETLRNVWVHLDGPGVTRPMKKMFCEIRPNSIVQWEEVVRPWVSGHRKLIARCQLLPWHVYGELDVQIQRRDYKDDDDK	67.2	27.1	
39908-A1 (designed binder, group M3-A50; ΔS82, M83R; also called M02 (clone ID)) MTIPEIIIKVRGTQVVGSDMTVIVEFSNPFKETLRNVWVHLDGPGVTRPMKKMFCEIRPNSIVQWEEVVRPWVSGHRKLIARCSLSPWHVYGELDVQIQRRDYKDDDDK	50.2	12	
39633-G6 (designed binder, group M3-A50; FG loop printed -TLRPW (one residue deleted), no scaffold mutation printed; also called M18 (clone ID)) MTIPEIIIKVRGTQVVGSDMTVIVEFTNPFKETLRSVWVHLDGPGVTRPMKKMFREIPPKTTVQWEEVVRPWVSGHRKLIASMTLRPWHVYGELDVQIQRRDYKDDDDK	75.1	19.7	
39908-A3 (designed binder, group M3-A50; ΔS82, M83R; also called M09 (clone ID)) MTIPEIIIKVRGTQVVGSDMTVIVEFTNPFKETLRSVWVHLDGPGVTRPMKKMFCEIRPNRIVQWEEVVRPWVSGHRKLIARCSLSPWHVYGELDVQIQRRDYKDDDDK	57.2	11	
39908-E5 (designed binder, group M3-A50; ΔS82, M83R; also called M56 (clone ID)) MTIPEIIIKVRGTQVVGSDMTVIVEFSNPFKETLRNVWVHLDGPGVTRPMKKMFSEIRPNSTVQWEEVVRPWVSGHRKLIARCSLSPWHVYGELDVQIQRRDYKDDDDK	77.8	21.9	
39908-A2 (designed binder, group M3-A50; ΔS82, M83R; also called M03 (clone ID)) MTIPEIIIKVRGTQVVGSDMTVIVEFTNPFKETLRNVWVHLDGPGVTRPMKKMFRDIRPKTKVQWEEVVRPWVSGHRKLIARCSLSPWHVYGELDVQIQRRDYKDDDDK	68.5	15.2	
39908-E1 (designed binder, group M3-A50; FG loop -TLRPW; V39M; also called M04 (clone ID)) MTIPEIIIKVRGTQVVGSDMTVIVEFTNLWKEALRNVWMHLDGPGVTRPMKKMFREIATMSTVQWEEVVRPWVSGHRKLIASMTLRPWHVYGELDVQIQRRDYKDDDDK	40.2	14.8	
